{"source": "paper PMC4644428", "binders": {"B1": {"name": "26-mer CRP consensus (dsDNA)", "DNA 1": "GTAAATGTGATGTACATCACATGGAT", "DNA 2": "ATCCATGTGATGTACATCACATTTAC"}}, "key": {"[1]": {"target": "CRPG (UniProt P0ACJ8 1-210, R124N;T128C;S129T)", "experiment": "fluorescence polarization"}, "[2]": {"target": "CRP (wild type) (UniProt P0ACJ8 1-210)", "experiment": "fluorescence polarization"}}, "data": [{"binder": "B1", "values": [{"measurement": "binding result", "setting": "[1]", "value": "binds"}, {"measurement": "binding result", "setting": "[2]", "value": "binds"}]}]}
